Laboratory results reported in patent US20220041738A1 (SAITAMA MEDICAL UNIVERSITY, published 2022).

Tests used:
[1] = biological target: T1, wild-type human ALK2 on cells (cDNA in pcDEF3) (human, UniProt Q04771 21-509); test: immunofluorescence (legend of FIG. 4)
T1 construct: also called wild-type ALK2; ALK2 (WT)
T1 sequence: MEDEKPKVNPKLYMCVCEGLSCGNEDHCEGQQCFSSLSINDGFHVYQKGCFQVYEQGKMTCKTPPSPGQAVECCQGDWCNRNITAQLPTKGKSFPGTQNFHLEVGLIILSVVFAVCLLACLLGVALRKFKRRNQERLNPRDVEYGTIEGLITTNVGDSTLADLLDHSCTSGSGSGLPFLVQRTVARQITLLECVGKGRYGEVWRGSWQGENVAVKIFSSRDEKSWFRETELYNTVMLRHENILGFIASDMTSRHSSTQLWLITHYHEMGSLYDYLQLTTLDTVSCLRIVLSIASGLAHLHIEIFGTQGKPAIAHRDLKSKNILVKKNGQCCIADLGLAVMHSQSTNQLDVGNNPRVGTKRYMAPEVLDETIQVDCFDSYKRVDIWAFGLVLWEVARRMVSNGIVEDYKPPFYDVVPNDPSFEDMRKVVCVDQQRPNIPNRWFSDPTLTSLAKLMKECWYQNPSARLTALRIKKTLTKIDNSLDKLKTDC
Summary of the method: (§1)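 C2C12 mouse myoblasts transfected overnight with human ALK2 cDNA (wild-type or FOP variants incl. G325A, pcDEF3 vector). Cells formalin-fixed, goat-serum blocked, stained 1 h RT with purified IgG at 10 µg/mL, then Alexa 594 anti-rat IgG 1 h; DAPI nuclei, fluorescence microscopy read-out.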

[2] = biological target: T2, human ALK2-R202I on cells (human, UniProt Q04771 21-509); test: immunofluorescence (legend of FIG. 4)
T2 sequence: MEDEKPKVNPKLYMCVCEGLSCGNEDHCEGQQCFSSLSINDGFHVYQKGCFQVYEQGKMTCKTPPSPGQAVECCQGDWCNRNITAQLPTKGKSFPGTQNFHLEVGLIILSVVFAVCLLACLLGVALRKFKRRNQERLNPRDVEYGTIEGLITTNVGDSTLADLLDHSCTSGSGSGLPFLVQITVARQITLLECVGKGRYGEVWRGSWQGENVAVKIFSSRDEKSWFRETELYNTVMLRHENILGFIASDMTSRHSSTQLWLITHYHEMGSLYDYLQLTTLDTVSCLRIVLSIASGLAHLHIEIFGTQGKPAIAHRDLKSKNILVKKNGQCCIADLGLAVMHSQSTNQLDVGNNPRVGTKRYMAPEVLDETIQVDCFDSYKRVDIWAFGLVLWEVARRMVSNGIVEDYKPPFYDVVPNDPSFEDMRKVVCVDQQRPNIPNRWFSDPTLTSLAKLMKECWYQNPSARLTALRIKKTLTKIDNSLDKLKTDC
Summary of the method: as §1

[3] = biological target: T3, human ALK2-L196P on cells (human, UniProt Q04771 21-509); test: immunofluorescence (legend of FIG. 4)
T3 sequence: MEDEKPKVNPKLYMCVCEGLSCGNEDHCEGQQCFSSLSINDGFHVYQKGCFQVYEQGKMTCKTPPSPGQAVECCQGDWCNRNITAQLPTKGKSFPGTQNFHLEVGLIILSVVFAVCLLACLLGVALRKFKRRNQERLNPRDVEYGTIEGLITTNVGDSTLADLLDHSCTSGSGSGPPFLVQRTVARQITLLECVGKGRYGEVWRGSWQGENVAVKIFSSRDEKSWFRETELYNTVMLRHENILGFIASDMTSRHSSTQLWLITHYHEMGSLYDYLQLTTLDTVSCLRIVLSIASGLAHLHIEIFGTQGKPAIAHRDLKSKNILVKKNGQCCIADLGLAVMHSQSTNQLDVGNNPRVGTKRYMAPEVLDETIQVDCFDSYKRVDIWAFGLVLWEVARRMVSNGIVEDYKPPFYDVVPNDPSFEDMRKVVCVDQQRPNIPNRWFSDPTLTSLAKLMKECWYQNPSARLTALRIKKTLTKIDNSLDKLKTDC
Summary of the method: as §1

[4] = biological target: T2, human ALK2-R202I on cells; test: immunofluorescence on transfected, formalin-fixed C2C12 cells, IgG at 10 µg/mL, Alexa 594 anti-rat IgG
Experimental: (§2) Mouse C2C12 cells were seeded into a 96-well plate (Greiner Bio-One) at 0.5×10³ cells/well, and cultured in 15% FBS-containing DMEM medium overnight under the conditions of 5% CO₂ at 37° C. On the following day, the C2C12 cells were transfected with each of a wild-type human ALK2 cDNA integrated into pcDEF3; pcDEF3/human ALK2-L196P, pcDEF3/human ALK2-P197_F198delinsL, pcDEF3/human ALK2-R202I, pcDEF3/human ALK2-R206H, pcDEF3/human ALK2-Q207E, pcDEF3/human ALK2-R258S, pcDEF3/human ALK2-G325A, pcDEF3/human ALK2-G328E, pcDEF3/human ALK2-G328R, pcDEF3/human ALK2-G328W, pcDEF3/human ALK2-G356D, and pcDEF3/human ALK2-R375P, which are variants identified in FOP; and pcDEF3 as a control, using Lipofectamine 2000 (Invitrogen), and further cultured overnight.
(§3) The C2C12 cells were fixed with 10% neutral formalin (Nacalai Tesque, Japan) for 20 minutes at room temperature, and then blocked with 10% goat normal serum for 30 minutes. After the blocking agent was removed, purified IgG diluted to 10 μg/mL with the blocking agent was added, and the cells were left for 1 hour at room temperature. After the cells were washed with PBS three times, Goat Alexa 594-conjugated anti-rat IgG (Invitrogen) diluted to 1:1000 with the blocking agent was added, and the cells were left for 1 hour at room temperature. After the cells were washed with PBS three times, the cells were fixed with 10% neutral formalin for 15 minutes at room temperature, and nuclear-stained with DAPI (LifeTechnologies). Fluorescent signals were analyzed with a fluorescence microscope BZ-9000 (Keyence).

[5] = biological target: T4, human ALK2-R375P on cells (human, UniProt Q04771 21-509); test: as above
T4 sequence: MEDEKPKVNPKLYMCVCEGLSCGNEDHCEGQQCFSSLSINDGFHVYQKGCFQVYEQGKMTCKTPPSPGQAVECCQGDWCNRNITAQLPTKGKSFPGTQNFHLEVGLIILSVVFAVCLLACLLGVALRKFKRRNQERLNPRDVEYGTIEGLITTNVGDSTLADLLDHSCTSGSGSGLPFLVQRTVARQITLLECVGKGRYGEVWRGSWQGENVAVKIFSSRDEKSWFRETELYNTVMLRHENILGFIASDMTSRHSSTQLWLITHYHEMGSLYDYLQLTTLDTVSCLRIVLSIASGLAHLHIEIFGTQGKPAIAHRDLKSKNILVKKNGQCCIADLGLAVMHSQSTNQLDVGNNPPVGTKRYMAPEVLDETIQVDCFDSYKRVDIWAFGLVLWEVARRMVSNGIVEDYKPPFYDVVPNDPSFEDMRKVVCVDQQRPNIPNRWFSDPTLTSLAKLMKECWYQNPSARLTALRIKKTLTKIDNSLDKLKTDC
Experimental: as §2, §3

| Binder | binding result [1] | binding result [2] | binding result [3] | binding result [4] | binding result [5] |
| --- | --- | --- | --- | --- | --- |
| rat anti-ALK2 monoclonal antibody A2-15A (antibody, V domains shown, Rat monoclonal IgG from a hybridoma; also called 15A6) VH: EVQLVESGGGLVQPGRSLKLSCAASGFTFSHYYMAWVRQAPTKGLEWVASITNSGGSINYRDSVKGRFTISRDNAKSTLYLQMDSLRSEDTATYYCTREGGENYGGYPPFAYWGQGTLVTVSS VL: DIVLTQSPALAVSLGQRATISCRANQGVSLSRYNLMHWYQQKPGQKPKLLIYRSSNLASGIPARFSGSGSGTDFTLTINPVQADDIATYYCQQSRESPFTFGAGTKLELKR | binds | binds | binds |  |  |
| rat anti-ALK2 monoclonal antibody A2-27D (antibody, V domains shown, Rat monoclonal IgG from a hybridoma; also called 27D11) VH: EVQLVESGGGLVQPGRSLKLSCLASGSTFSNYGMKWIRQAPGKGLEWVASISRSSTYIYYADTVKGRFTISRDNARNTLYLQMTSLRSEDTALYYCAAAISTPFYWYFDFWGPGTVVTVSS VL: EIVLTQSPTTMAASPGEKVTLNCLASSSVSYMTWYQQKSGASPKLWIYGTSNLASGVPNRFSGSGSGTSYSLAISSMEAEDVATYYCLHLTSYPPYTFGAGTKLELKR |  |  |  | binds | binds |
| rat anti-ALK2 monoclonal antibody A2-11E (antibody, V domains shown, Rat monoclonal IgG from a hybridoma; also called 11E2) VH: EVQLVETGGGLVQPGRSLKLSCVASGFTFSNYYMYWIRQAPGKGLEWISSINTDGGSTYYPDSVKGRFAISRDNAENTVYLQMNSLRSEDTATYYCAKSTPNIPLAYWGQGTLVTVSS VL: DIQMTQSPSLLSASVGDRVTLSCKASQNIYKYLNWFQQKLGEAPKLLIYYSNSLQTGIPSRFSGSGSGTDFTLTISSLQPEDVAIYFCFQYSSGPTFGPGTKLELKR | binds | binds | binds |  |  |
| rat anti-ALK2 monoclonal antibody A2-25C (antibody, V domains shown, Rat monoclonal IgG from a hybridoma; also called 25C11) VH: EVQLVESGGGLVQPGGSLKLSCAASGFTFSYYAMSWVCQAPTKGLEWVASISRGGDNTYYRDTVKGRFTTSRDNAKNTLYLQMDSLRSEDTATYYCARLNYNNYFDYWGQGVMVTVSS VL: DIQMTQSPASLSASLEEIVTITCQASQDIGNWLSWYQQKPGKSPQLLIYGATSLADGVPSRFSGSRSGTQYSLKISRLRVEDIGIYYCLQAYSAPFTFGSGTKLEIKR |  |  |  | binds | binds |
